# From publication PMC10514136, “Peptide-conjugated antimiRs improve myotonic dystrophy type 1 phenotypes by promoting endogenous MBNL1 expression” (Molecular Therapy. Nucleic Acids, 2023)
# “And” between values parts separate entries of the source, which are not always exact repeats. Equal values may be shown once.
# How the values were obtained:
# Format in all cases: in vivo, mouse
# [1] = test system: HSALR mice; assay: White blood cell differential count; conditions: mouse, in vivo, iv, 9.2 mg/kg
# Excerpt: Mouse handling and experimental procedures followed the European law regarding laboratory animal care and experimentation (2003/65/C.E.) and were approved by Conselleria de Agricultura, […] (reference no. A1539961490857). We used homozygous transgenic HSA^LR (line 20 b) mice,[90] which were kindly provided by Dr Thornton (Rochester, NY) and were housed and bred in our animal facility. […] The mice were randomly allocated to the different treatments as follows: in each cage, each mouse was ear-marked as it was taken out, and each mouse was then assigned to a different treatment. Animals were injected biweekly intravenously with 150 μL of 1× PBS vehicle (controls; […] Mice were sacrificed 45 days after the first injection and the tissues of interest were frozen in liquid nitrogen for the molecular and histological assays. All the mice used in this study ranged from 5 to 5.5 months of age and all were males. At 45 days post treatment, animals were sacrificed, and blood was collected by cardiac puncture exsanguination with K3-EDTA (Sarstedt, Nümbrecht, Germany). The samples were analyzed by Laboratorios Montoro Botella (Valencia, Spain).
# [2] = test system: Atp2a1 exon 22; assay: Alternative splicing of Atp2a1 exon 22 in muscle by RT-PCR (PSI, splice recovery); conditions: HSALR mice, individual mice
# Method: Total RNA from murine gastrocnemius and quadriceps muscle was isolated using the miRNeasy Mini Kit (QIAGEN, Hilden, Germany) according to the manufacturer’s instructions. One microgram of RNA was digested with DNase I (Invitrogen, Carlsbad, CA) and reverse transcribed with SuperScript II (Invitrogen) using random hexanucleotides. For subsequent PCR reactions, 20 ng of cDNA was used with GoTaq polymerase (Promega). Specific primers were used to analyze the alternative splicing of Nfix, Atp2a1, and Clcn1 in mouse samples (both muscles). Gapdh levels established the endogenous reference levels using 0.2 ng of cDNA. PCR products were separated on a 2% agarose gel and quantified using ImageJ software (NIH, Bethesda, MD). PSR index was defined as value%SI minus X¯%DSI , divided by X¯%DSI minus X¯%HSI (SI, splicing inclusion of each sample; DSI, disease splicing inclusion; HSI, healthy splicing inclusion). Overall, PSR indicates the amount in both muscles analyzed. Primer sequences and exons analyzed are available in Cerro-Herreros et al.[20] In the case of off-targets, interleukins, and muscle regeneration marker Mstn-1, primers sequences are available in Table S5. We used 1 ng of mouse tissue cDNA as a template for multiplex qPCR using the QuantiFast Probe PCR Kit reagent. Commercial TaqMan probes (QIAGEN) were used for mouse (Mbnl1 and Mbnl2; FAM-labeled probes) and reference (GAPDH; MAX-labeled probe) genes. Results were normalized to Gapdh endogenous gene expression.
# We used homozygous transgenic HSA^LR (line 20 b) mice,[90] which were kindly provided by Dr Thornton (Rochester, NY) and were housed and bred in our animal facility. Experimental groups were FVB as healthy control and HSA^LR treated with a scrambled ON (SC) and PBS as negative controls, and HSA^LR mice treated with all six experimental CPP-PMOs. The mice were randomly allocated to the different treatments as follows: in each cage, each mouse was ear-marked as it was taken out, and each mouse was then assigned to a different treatment. […] Mice were sacrificed 45 days after the first injection and the tissues of interest were frozen in liquid nitrogen for the molecular and histological assays. All the mice used in this study ranged from 5 to 5.5 months of age and all were males.
# [3] = ELISA determination of antimiR conjugate concentrations in tissues; conditions: HSALR mice, 9.2 mg/kg (mean) i.v. x3, day 45; hybridization ELISA, background subtracted; individual mice; 9.2 mg/kg
# Method: Custom ELISA-based measurements of antimiR conjugate concentrations in brain, kidney, liver, heart, gastrocnemius, and quadriceps from treated HSA^LR mice were performed as described in Burki et al.,[89] using the following phosphorothioate probes: for miR-218 (5′ → 3′) [DIG] T∗T∗G∗T∗G∗C∗T∗TGATCTA∗A∗C∗C∗A∗T∗G∗T [BIO]; for miR-23b (5′ → 3′) [BIO] A∗T∗C∗A∗C∗A∗T∗TGCCAGG∗G∗A∗T∗T∗A∗C∗C [DiG] double-labeled with digoxigenin (DIG) and biotin (BIO). In all cases, a control sample was used to subtract the background (HSA^LR treated with PBS for 9b2 and 9b2-KC ONs; HSA^LR treated with Scramble for 6aKC ONs).
# Mouse handling and experimental procedures followed the European law regarding laboratory animal care and experimentation (2003/65/C.E.) and were approved by Conselleria de Agricultura, Generalitat Valenciana (reference no. A1539961490857). We used homozygous transgenic HSA^LR (line 20 b) mice,[90] which were kindly provided by Dr Thornton (Rochester, NY) and were housed and bred in our animal facility. Experimental groups were FVB as healthy control and HSA^LR treated with a scrambled ON (SC) and PBS as negative controls, and HSA^LR mice treated with all six experimental CPP-PMOs. The mice were randomly allocated to the different treatments as follows: in each cage, each mouse was ear-marked as it was taken out, and each mouse was then assigned to a different treatment. Animals were injected biweekly intravenously with 150 μL of 1× PBS vehicle (controls; HSA^LR n = 7 and FVB n = 6) or 150 μL of a solution 1.875 mg/mL of the test CPP-PMOs corresponding to an average dose of 9.2 mg/kg (HSA^LR mice: SC n = 5, 9b2-218 n = 5, 9b2-23b n = 5, […] n = 5, […] n = 5, 6aKC-218 n = 5, and 6aKC-23b n = 5; see Table S6 for precise dosing). Mice were sacrificed 45 days after the first injection and the tissues of interest were frozen in liquid nitrogen for the molecular and histological assays. All the mice used in this study ranged from 5 to 5.5 months of age and all were males.
substance,measurement,setting,value
"9b2KC-218 (antisense ACAUGGUUAGAUCAAGCACAA; all phosphorodiamidate morpholino (PMO), T or U not given here; Pip9b2KC peptide conjugated)",Basophils,[1],0 ± 0%
same,Eosinophils,[1],"7,20 ± 2,28%"
same,Lymphocytes,[1],"59,60 ± 3,130%"
same,Monocytes,[1],"6,40 ± 2,074%"
same,Seg cells,[1],"25,8 ± 4,324%"
same,Percentage spliced-in (PSI) Atp2a1 Gast,"[2]; 9.2 mg/kg (mean) i.v. x3, day 45, gastrocnemius",12.53% and 17.65% and 19.44% and 12.90% and 35.28%
same,Percentage spliced-in (PSI) Atp2a1 Quads,"[2]; 9.2 mg/kg (mean) i.v. x3, day 45, quadriceps",99.70% and 25.98% and 29.31% and 30.83% and 25.20%
same,"CPP-PMO concentration (pM), Brain",[3],6.68 pM and 4.47 pM and 1017.83 pM
same,"CPP-PMO concentration (pM), Gastrocnemius",[3],726.85 pM and 1065.08 pM and 788.22 pM
same,"CPP-PMO concentration (pM), Heart",[3],1724.69 pM and 184.66 pM and 108.67 pM
same,"CPP-PMO concentration (pM), Kidney",[3],1320762.73 pM and 1455590.50 pM and 1409556.69 pM
same,"CPP-PMO concentration (pM), Liver",[3],12456.78 pM and 13391.72 pM and 5588.09 pM
same,"CPP-PMO concentration (pM), Quadriceps",[3],37.03 pM and 1605.97 pM and 358.44 pM
